The numbers were not newly measured in paper PMC12799613, which cites them from elsewhere.

For series [1], the target named is GIRK2 (Kir3.2), fourth Gβγ binding (Mus musculus) (UniProt P48542).
In series [2] the target is GIRK2 (Kir3.2), first Gβγ binding (Mus musculus) (UniProt P48542).
For series [3], the target named is TRPM3 peptide (Mus musculus) (UniProt J9SQF3).
The target of series [4] is TRPC5 (Homo sapiens) (UniProt Q9UL62).
Sequence of TRPC5 (Homo sapiens) (Q9UL62 whole entry): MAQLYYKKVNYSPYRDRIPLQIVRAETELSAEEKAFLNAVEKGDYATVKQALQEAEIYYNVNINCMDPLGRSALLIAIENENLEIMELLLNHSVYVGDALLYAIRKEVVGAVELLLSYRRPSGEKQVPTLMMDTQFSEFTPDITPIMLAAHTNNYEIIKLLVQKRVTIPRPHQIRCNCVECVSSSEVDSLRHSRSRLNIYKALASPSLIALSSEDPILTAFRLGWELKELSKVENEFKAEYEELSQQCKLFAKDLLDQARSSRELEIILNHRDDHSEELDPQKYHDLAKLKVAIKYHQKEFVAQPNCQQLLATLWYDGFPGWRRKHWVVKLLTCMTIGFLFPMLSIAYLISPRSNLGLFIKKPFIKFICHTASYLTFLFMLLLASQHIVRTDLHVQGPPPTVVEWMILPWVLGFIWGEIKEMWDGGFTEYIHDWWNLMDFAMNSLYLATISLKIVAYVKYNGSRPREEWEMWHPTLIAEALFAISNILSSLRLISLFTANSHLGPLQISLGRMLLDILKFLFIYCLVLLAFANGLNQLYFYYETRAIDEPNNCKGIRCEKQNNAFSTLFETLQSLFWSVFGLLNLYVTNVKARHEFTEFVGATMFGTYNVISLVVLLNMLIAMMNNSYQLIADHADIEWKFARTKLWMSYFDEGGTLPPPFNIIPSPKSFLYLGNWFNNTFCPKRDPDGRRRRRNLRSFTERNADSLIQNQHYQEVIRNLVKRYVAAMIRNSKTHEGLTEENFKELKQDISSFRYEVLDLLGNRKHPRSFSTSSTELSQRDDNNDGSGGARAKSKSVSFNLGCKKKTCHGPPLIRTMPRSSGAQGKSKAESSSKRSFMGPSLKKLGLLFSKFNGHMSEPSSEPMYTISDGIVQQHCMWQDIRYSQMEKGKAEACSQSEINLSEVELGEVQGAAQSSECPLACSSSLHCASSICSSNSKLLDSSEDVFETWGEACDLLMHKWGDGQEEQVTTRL

Sequence of Gβ1γ2 (P62873 2-340): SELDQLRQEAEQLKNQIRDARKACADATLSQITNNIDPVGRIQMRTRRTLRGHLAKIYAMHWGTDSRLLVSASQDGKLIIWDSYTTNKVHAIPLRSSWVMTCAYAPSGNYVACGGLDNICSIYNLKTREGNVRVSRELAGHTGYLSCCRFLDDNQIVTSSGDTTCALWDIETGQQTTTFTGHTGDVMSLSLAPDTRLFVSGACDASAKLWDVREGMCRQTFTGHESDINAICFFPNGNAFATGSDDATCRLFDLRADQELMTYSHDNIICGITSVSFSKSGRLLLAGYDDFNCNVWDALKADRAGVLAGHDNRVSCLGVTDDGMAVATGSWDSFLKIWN
Sequence of Gβ1γ2 (P59768 2-68, further chain): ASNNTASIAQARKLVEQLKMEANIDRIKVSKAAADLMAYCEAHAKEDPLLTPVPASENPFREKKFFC
Sequence of Gαi3 (P08754 2-354): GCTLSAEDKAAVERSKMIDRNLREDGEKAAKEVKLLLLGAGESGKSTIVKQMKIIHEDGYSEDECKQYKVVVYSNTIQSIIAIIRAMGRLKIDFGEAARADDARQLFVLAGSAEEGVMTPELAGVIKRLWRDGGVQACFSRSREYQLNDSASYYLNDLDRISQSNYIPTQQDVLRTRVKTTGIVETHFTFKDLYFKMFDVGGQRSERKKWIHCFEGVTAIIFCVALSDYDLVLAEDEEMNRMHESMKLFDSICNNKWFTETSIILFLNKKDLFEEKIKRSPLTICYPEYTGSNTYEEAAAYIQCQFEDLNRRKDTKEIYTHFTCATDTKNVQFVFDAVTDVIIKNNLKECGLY
Sequence of GIRK2 (Kir3.2), first Gβγ binding (Mus musculus) (P48542 whole entry): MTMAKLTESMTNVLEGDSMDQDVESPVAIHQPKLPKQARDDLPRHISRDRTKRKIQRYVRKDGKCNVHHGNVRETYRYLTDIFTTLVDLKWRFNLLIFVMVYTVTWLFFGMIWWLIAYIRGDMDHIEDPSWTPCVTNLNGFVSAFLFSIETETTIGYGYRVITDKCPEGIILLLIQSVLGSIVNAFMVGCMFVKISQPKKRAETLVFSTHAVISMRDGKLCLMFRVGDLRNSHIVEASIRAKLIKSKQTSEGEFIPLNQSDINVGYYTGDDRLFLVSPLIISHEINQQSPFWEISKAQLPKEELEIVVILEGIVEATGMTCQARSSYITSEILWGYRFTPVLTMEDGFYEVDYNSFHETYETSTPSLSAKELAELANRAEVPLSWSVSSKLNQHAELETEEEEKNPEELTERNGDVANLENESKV
Sequence of GIRK2 (Kir3.2), fourth Gβγ binding (Mus musculus) (P48542 whole entry): as above
Sequence of TRPM3 peptide (Mus musculus) (J9SQF3 whole entry): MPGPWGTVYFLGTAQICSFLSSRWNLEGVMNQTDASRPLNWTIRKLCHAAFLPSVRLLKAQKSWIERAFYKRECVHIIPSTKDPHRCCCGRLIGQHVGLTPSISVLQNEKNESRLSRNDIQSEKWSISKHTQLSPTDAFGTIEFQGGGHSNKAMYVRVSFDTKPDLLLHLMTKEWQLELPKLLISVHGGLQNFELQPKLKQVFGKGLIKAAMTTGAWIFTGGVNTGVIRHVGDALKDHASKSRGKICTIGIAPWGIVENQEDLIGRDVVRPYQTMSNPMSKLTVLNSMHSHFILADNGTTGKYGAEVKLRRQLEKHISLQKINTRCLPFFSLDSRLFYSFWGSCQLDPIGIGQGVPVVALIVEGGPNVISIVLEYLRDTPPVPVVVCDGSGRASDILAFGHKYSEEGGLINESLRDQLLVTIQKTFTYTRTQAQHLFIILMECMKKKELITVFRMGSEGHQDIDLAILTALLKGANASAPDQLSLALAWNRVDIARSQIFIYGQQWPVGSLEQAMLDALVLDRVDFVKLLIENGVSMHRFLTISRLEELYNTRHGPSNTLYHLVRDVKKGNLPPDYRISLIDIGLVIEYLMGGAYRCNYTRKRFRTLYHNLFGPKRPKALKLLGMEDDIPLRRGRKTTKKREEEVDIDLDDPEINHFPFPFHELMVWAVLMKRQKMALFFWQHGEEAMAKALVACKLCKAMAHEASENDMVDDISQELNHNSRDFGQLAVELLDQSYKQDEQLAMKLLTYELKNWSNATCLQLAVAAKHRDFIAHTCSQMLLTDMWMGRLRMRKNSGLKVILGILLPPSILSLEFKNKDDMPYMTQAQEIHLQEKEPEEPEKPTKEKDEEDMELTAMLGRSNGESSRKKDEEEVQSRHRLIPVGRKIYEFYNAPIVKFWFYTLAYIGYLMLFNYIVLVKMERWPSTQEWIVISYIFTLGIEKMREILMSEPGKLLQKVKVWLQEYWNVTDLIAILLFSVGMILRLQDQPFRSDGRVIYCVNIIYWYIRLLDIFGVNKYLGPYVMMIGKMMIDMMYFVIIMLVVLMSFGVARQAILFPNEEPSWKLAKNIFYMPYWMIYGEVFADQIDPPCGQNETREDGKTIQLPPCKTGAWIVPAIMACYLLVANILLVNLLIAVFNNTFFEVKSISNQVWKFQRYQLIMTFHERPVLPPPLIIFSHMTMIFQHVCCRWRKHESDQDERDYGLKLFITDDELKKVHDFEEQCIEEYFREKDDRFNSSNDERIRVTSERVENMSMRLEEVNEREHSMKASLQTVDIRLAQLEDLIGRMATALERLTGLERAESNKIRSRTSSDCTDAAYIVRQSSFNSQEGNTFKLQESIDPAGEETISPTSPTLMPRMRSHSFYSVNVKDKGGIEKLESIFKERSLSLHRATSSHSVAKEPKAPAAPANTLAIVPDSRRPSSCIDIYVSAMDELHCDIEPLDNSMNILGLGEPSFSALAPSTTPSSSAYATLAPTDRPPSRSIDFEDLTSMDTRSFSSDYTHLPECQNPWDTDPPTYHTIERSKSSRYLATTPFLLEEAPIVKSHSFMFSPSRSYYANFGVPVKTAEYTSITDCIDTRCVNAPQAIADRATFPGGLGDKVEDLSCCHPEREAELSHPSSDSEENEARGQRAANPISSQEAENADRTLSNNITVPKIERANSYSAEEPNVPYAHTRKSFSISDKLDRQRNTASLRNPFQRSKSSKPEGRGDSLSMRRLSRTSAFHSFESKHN

Regarding Gβ1γ2 (from UniProt P62873), the Kd (as a rule, the constant that tells how readily two partners part at equilibrium) in series [1] was 50 µM; in series [2] it was 1900 µM; in series [3], 56 µM.
In the case of Gαi3 (from UniProt P08754), the Kd in series [4] is 0.91 µM.
